In patent US20040197809A1:
“And” between values parts separate entries of the source, which are not always exact repeats. Equal values may be shown once.

Tests used:
[1] = target: HIV-1 strain HTLV-IIIB (virus) (HIV-1 strain HTLV-IIIB); experiment: cell-based or functional assay
[2] = target: gp120, the major envelope glycoprotein of HIV-I (HIV-1); experiment: saturation binding of 125I-gp120 in solution, immunoprecipitation with OKT4, Scatchard analysis
[3] = target: gp120, the major envelope glycoprotein of HIV-I (HIV-1); experiment: gp120 binding by the method of Smith et al., Science 238:1704-07 (1987)
[4] = target: Fcγ receptor (determined with U937 cells) (Homo sapiens (Human)) (UniProt P12314); experiment: binding to Fcγ receptor on U937 cells, method of Anderson et al., J. Immunol. 125:2735-2741 (1980)
Chain of UniProt P12314 (P12314 16-374 limits assumed, form in doubt): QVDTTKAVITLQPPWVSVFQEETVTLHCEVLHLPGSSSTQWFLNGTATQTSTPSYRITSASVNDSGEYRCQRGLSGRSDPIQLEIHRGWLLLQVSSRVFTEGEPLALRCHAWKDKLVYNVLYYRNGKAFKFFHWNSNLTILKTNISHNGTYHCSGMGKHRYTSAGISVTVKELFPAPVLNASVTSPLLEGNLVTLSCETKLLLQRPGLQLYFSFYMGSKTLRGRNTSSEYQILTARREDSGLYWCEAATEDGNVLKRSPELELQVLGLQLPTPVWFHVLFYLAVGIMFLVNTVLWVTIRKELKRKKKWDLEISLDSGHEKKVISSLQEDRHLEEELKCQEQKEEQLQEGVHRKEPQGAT

Row | Substance | Indirect immunofluorescence (% positive cells), inhibitor supernatant 1:4 (% positive cells) [1] | Indirect immunofluorescence (% positive cells), inhibitor supernatant undil. (% positive cells) [1] | Reverse transcriptase (cpm/ml × 10^5), inhibitor supernatant 1:4 [1] | Reverse transcriptase (cpm/ml × 10^5), inhibitor supernatant undil. [1] | Kd [2] [nM] | Kd [3] [nM] | Kd [4] [nM]
1 | CD4T (CD4 fused after residue 368 of mature CD4 to 9 residues coded by pBR322 sequence) (from UniProt P01730 27-393) (receptor) | 18 and 16.1 | 0.4 and 0.8 | 372000 cpm/ml and 594000 cpm/ml | 11000 cpm/ml and 15000 cpm/ml | 0.83 | – | –
2 | CD42γ1 immunoadheson (CD4 to glutamine residue 180 fused to the constant region of human immunoglobulin γ1) (Fc fusion) | – | – | – | – | – | 1.4 | 3.01
3 | CD44γ1 immunoadheson (CD4 to serine residue 366 fused to the constant region of human immunoglobulin γ1) (Fc fusion) | – | – | – | – | – | 1.2 | 2.83
4 | bulk human IgG1 (antibody) | – | – | – | – | – | – | 3.52
5 | gDCD4T (signal peptide and first 27 residues of mature HSV type I gD glycoprotein fused to mature CD4T) (receptor) | 26.8 and 36.1 | – | 992000 cpm/ml and 1.13e+06 cpm/ml | 14000 cpm/ml and 23000 cpm/ml | 0.72 | – | –
